Test results from patent US9809653B2, “Anti-LAMP1 antibodies and antibody drug conjugates, and uses thereof” (SANOFI, priority 2012, dated 2017).

T1: human LAMP1 expressed at the cell surface of recombinant HCT116 (HCT116 huLAMP1 clone 8) (Homo sapiens, UniProt P11279)
T1 construct: full length human and cynomolgus monkey LAMP1 expressed at the cell surface of a recombinant cell line, wherein the cell line may be HCT116; expressed in transfected cells
T1 sequence (P11279 29-417): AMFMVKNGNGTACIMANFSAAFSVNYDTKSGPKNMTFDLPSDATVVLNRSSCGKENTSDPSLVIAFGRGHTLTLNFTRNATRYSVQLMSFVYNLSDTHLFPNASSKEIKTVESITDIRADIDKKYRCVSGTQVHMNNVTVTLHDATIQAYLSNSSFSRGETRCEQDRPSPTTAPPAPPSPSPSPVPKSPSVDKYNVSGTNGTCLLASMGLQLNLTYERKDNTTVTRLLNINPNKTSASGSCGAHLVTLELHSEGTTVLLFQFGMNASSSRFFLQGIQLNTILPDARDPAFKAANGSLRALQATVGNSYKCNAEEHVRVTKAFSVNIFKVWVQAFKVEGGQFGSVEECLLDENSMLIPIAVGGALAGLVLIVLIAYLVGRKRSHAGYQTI

T2: mLAMP1_ΔGYQTI (Mus musculus, UniProt P11438)
T2 construct: expressed in transfected cells; host or cells: 293-F (HEK293-derived), transient transfection, plasmid pXL6009
T2 sequence (P11438 with tags, fused parts or gaps limits assumed): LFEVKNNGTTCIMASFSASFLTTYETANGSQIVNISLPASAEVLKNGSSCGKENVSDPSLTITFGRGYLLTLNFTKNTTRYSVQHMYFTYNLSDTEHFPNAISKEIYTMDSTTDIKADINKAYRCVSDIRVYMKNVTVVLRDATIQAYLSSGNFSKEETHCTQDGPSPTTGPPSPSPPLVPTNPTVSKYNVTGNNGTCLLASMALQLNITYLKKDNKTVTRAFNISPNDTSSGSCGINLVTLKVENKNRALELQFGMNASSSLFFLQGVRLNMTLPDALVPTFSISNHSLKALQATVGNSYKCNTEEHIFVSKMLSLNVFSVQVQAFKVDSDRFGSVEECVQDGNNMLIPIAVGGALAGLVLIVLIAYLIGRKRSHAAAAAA


How the values were obtained:
[1] = target: T1, human LAMP1 expressed at the cell surface of recombinant HCT116 (HCT116 huLAMP1 clone 8); test: FACS on recombinant HCT116 stable clones expressing human LAMP1; format: binding
Experimental: HCT116 cells were infected by a lentiviral vector allowing stable integration of the human or the cynomolgus LAMP1 CDS in genomic DNA of cells. Individual clones with different densities of human or cynomolgus LAMP1 cell surface localization were derived from a pool of HCT116 infected cells. […] 100 μL/well of goat anti-human IgG conjugated with Alexa488 (Invitrogen; #A11013) was added for 1 h at 4° C. and washed two times with PBS 1% BSA. The antibody binding was evaluated after centrifugation and resuspension of cells in 100 μl fixing solution (paraformaldehyde at 4% in PBS). Samples were read using Galaxy® Flow Cytometry System (Partec). EC50 values were estimated using BIOST@T-SPEED software.
100 μL/well of goat anti-mouse IgG conjugated with Alexa647 (Invitrogen; #A2135) was added for 45 min at 4° C. and washed three times with PBS 1% BSA. The antibody binding was evaluated after centrifugation and re-suspension of cells by adding 200 μl/well PBS 1% BSA and read using Guava® easyCyte™ 8HT Flow Cytometry System. EC50 values were estimated using BIOST@T-SPEED software.
HCT116 stable clone was obtained as described above. […]
DM4-SPDB-huMAb1_1 was assessed by flow cytometry for its ability to bind to human LAMP1 or cynomolgus LAMP1 proteins expressed respectively at the surface of HCT116 or HEK293 stable clones, both obtained as described in the protocol of example 4.7. […]

[2] = target: T2, mLAMP1_ΔGYQTI; test: Binding onto membrane-anchored murine LAMP1 (293-F cells) by flow cytometry; conditions: pXL6009 mLAMP1_ΔGYQTI
Source text: Different LAMP1 proteins were expressed at the cell membrane of HEK293 cells after transient expression from mammalian plasmids encoding the entire coding sequence of LAMP1 deleted of the intracellular lysosome-targeting motif GYQTI and substituted by a 5-Ala repeat sequence. Mammalian plasmids had similar expression signals as plasmids used to produce recombinant LAMP1 described in example 6.2. Table 14 below lists all the plasmids that were designed in order to confirm the results obtained with soluble LAMP1 protein by ELISA in example 6.3 and further characterize the binding domains of the anti-LAMP1 mAbs.
Each expression plasmid described in example 6.4 was complexed with 293Fectin™ in suspension-cultivated 293-F cells as using the protocol outlined in example 6.2. Two days post transfection cells were processed, analyzed by flow cytometry (Guava® easyCyte™ 8HT) as mentioned in example 4.7, and the mean fluorescence was recorded. This fluorescence represents a semi-quantitative assessment of binding.

[3] = test system: cynomolgus monkey LAMP1 protein (SEQ ID NO: 29); test: ELISA on cynomolgus monkey LAMP1; format: binding; conditions: FIG. 3
cynomolgus monkey LAMP1 protein (SEQ ID NO: 29), sequence (as listed by the source): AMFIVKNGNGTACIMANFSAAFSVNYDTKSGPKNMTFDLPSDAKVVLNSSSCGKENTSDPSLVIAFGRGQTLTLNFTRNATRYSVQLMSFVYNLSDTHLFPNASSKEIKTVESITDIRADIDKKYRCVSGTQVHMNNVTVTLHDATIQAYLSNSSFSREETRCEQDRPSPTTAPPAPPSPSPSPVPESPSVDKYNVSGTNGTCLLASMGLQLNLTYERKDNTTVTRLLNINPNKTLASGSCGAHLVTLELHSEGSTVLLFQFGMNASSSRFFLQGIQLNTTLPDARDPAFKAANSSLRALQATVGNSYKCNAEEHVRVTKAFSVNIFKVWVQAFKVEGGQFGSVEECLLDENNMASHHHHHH
Experimental: Extracellular domain of LAMP1 of human (Ala29-Met382 of SEQ ID NO: 24) and cynomolgus monkey LAMP1 (Ala27-Met380 of SEQ ID NO: 39) were prepared as described in example 6.2. […] The antibody binding was visualized by adding TMB-H2O2 buffer and read at a wavelength of 450 nm.
Antibody MAb4 was assessed for its ability to bind primate LAMP1 protein by enzyme-linked immunosorbent assay (ELISA) assay as described in example 4.7 and EC50 values determined as described in example 6.2.

EC50 [1] [nM] | Binding call ([2]; Table 17 Experiment no1) | Mean fluorescence ([2]; Table 17 Experiment no1) | Binding call ([2]; Table 18) | Mean fluorescence ([2]; Table 18) | Binding call ([2]; Table 17 Experiment no2) | Mean fluorescence ([2]; Table 17 Experiment no2) | Binding affinity, cynomolgus monkey LAMP1 versus human LAMP1 [3] | Molecule
6.3 | No binding | 21 | No binding | 27 | – | – | – | MAb2: murine monoclonal anti-LAMP1 antibody, VH SEQ ID NO: 8, VL SEQ ID NO: 12 (antibody, V domains shown, antibod fragment; antibody fragment) VH: QVQLQQSAAELARPGASVKMSCKASGYTFTSYTMHWVKQRPGQGLEWIGYFNPSSGYPEYNQKFKDKTTLTADKSSNTAFIQLNSLTSEDSAVYYCSRGYYYGSRGYALDFWGQGASVTVSS VL: NIVLTQSPVSLAVSLGQRATISCRASESVDINGNTFMHWYQQKPGQSPKLVIYAASNIESGVPARFSGSGSSTDFTFTIDPVEADDVATYYCQQNIEDPWTFGGGTKVEIK
4.9 | No binding | 4 | – | 13 | No binding | 2 | in the same range | MAb1: murine monoclonal anti-LAMP1 antibody, VH SEQ ID NO: 1, VL SEQ ID NO: 5 (antibody, V domains shown, Antibody Fragment; antibody fragment) VH: QVQLQQSGAELVKPGASVKMSCKASGYIFTNYNIHWVKKSPGQGLEWIGAIYPGNGDAPYSQKFKDKATLTADKSSSTTYMQLSRLTSEDSAVYYCVRANWDVAFAYWGQGTLVSVSA VL: DIQMTQSPPSLSASLGGKVTITCKASQDIDRYMAWYQDKPGKGPRLLIHDTSTLQPGIPSRFSGSGSGRDYSFSISNLEPEDIATYYCLQYDNLWTFGGGTKLEIK
